Data set [1] deals with MS2 coat protein. Briefly: apparent KD of MS2 coat protein, switch ON state; designed switch direction (-1 OFF switch, 1 ON switch): -1; higher = weaker reporter binding. As to conditions: FMN input: 0 or 200 uM; Eterna round: R93 (includes R88 designs). The procedure, abridged:
(§1)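 Each design's apparent KD comes from the median of binding-curve fits to its normalised clusters. Those clusters carried RNA switches transcribed on-chip from Illumina sequencing clusters. SNAP-549-labelled MS2 coat protein was titrated onto them in twofold steps (0.7 or 1.5 nM to 3 µM; per step 0.8–1.5 h down to 10–20 min). Conditions were 100 mM Tris-HCl pH 7.5, 80 mM KCl, 4 mM MgCl2, without or with constant ligand.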

In data set [2] the test system is MS2 coat protein. Briefly: apparent KD of MS2 coat protein, switch OFF state (with FMN for OFF switches, without FMN for ON switches); designed switch direction (-1 OFF switch, 1 ON switch): -1; higher = weaker reporter binding. The conditions noted are these: FMN input: 0 or 200 uM; Eterna round: R93 (includes R88 designs). The procedure, abridged:
as §1

This note sets out measurements from the supplement of paper PMC9170038.

Regarding “AGCUAGUCAGGAUAUACGAACAUGUCAAAAGACGUGAGGGAACAUGAGGAUCACCCAUGUAGAAGGGACUAGCA [Moving G segment in JL's topscorer (74%)]”, the “apparent KD of MS2 coat protein” value in the data set with MS2 coat protein [1] was 36.6 nM; with MS2 coat protein [2], 37.5 nM.
Take “AGCUAGUCAGGAUAUACGAGAAAGAAAGAAGACGUGAAGGGACAUGAGGAUCACCCAUGUAGAAGGGACUAGCA [Diamond 26]”: the “apparent KD of MS2 coat protein” value turned out to be 30.3 nM in the data set with MS2 coat protein [1] and 67.1 nM with MS2 coat protein [2].
The corresponding values for “AGCUAGUCAGGAUAUACGAGAAUGACAAAAGACGUGAAGGGACAUGAGGAUCACCCAUGUAGAAGGGACUAGCA [Diamond 24]” are 39.2 nM and 117 nM.
“AGCUAGUGAGGAUAUACGAACAAGUCAACGGACUGUAAGGGACAUGAGGAUCACCCAUGUAGAAGGCACUAGCA [Diamond 58]”: the “apparent KD of MS2 coat protein” value in the data set with MS2 coat protein [1] was 29.4 nM; with MS2 coat protein [2], 148 nM.
“AGCUAGUGAGGAUAUACGAACAUGUCAAAAGACGUGAAGAAACAUGAGGAUCACCCAUGUAGAAGGCACUAGCA [Mat - Exclusion 2 - JL-Eli mod - D55]”: the “apparent KD of MS2 coat protein” value was determined as 15.5 nM in the data set with MS2 coat protein [1] and 14.9 nM with MS2 coat protein [2].
For “AGGAGACAUGAGGAUCACCCAUGUUAGGAUAUGAACGAAAUAAAAUAAAAAUAAAAGUUCAGAAGGAACGAAAA [Mat - Exclusion 1 - Eli mod - D10]”, the figures for the “apparent KD of MS2 coat protein” value with MS2 coat protein [1] and in the data set with MS2 coat protein [2] were 34.6 nM and 56.6 nM, respectively.
The corresponding values for “AGGGAGUAAGGAUAUGCAUAUAAUGAAGAGAAAGAAAAGAAGCAGAAGGUACAUGAGGAUCACCCAUGUAAAAA [milkweed 2]” are 28.4 nM and 22.7 nM.
Turning to “AGUAGUACAGGAUAUACAUGAGGAUCACCCAUGUGAGAAUUAAGUGGCGUACCACAAAGUAGAAGGGUACUACA [Mat - Exclusion 3 - JL mod - D38]”, the “apparent KD of MS2 coat protein” value came to 40.1 nM with MS2 coat protein [1] and 211 nM in the data set with MS2 coat protein [2].
As to “AGUCGGCGAGGAUAUACAUGAGGAUCACCCAUGUGAGAGAAAAAAGUGAGUUAGACAAGUAGAAGGCGCUGACA [JL Lego Mod 7]”, the “apparent KD of MS2 coat protein” value in the data set on MS2 coat protein [1] stood at 44.1 nM; with MS2 coat protein [2], 172 nM.
Consider “AGUGAGUGAGGAUAUGCUAGAAGAAUAAAAGAAAUAACGUAGCAGAAGGCACAUGAGGAUCACCCAUGUACACA [May 66]”, for which the entries for the “apparent KD of MS2 coat protein” value in the data set with MS2 coat protein [1] and in the data set on MS2 coat protein [2] were 25.6 nM and 22.5 nM, respectively.
The like results for “AGUUGGCGAGGAUAUACAUGAGGAUCACCCAUGUAAGAGAAAAAAAGGAGAAAAAAAAGUAGAAGGCGCUGACA [Mat - Exclusion 3 - Lego mod - D45]” were, in that order, 35.4 nM and 41.9 nM.
As to “AGUUGGCGAGGAUAUACAUGAGGAUCACCCAUGUGAAAGAAAAAAGUGAAAAAGCAAAGUAGAAGGCGCUGACA [73%, Moding Norbert Elias, 5]”, the “apparent KD of MS2 coat protein” value in the data set on MS2 coat protein [1] was 34.9 nM; in the data set with MS2 coat protein [2] it was 192 nM.
As to “AUAAAACAUGAGGAUCACCCAUGUGAGGAUAUCCUAAAAGAAAGAAAAAAAAAAAAAUGGAGAAGGCACAAUAA [Amethyst 47]”, the “apparent KD of MS2 coat protein” value was 119 nM in the data set with MS2 coat protein [1] and 159 nM with MS2 coat protein [2].
The like results for “AUAAAACAUGAGGAUCACCCAUGUGAGGAUAUGCGAAAAUAAAUAAAAUAAAAUAAAAGCAGAAGGUACAAAUA [LROPPY Exclusion 1 - v04_deltaG=2.5 breakup some As]” were, in that order, 29.3 nM and 40.2 nM.
The corresponding values for “AUAAAACAUGAGGAUCACCCAUGUGAGGAUAUGCUAAAAUAAAAUAAAAUAAAAUAAUGCAGAAGGCACAAAUA [Fancy Pants]” are 37.6 nM and 53.8 nM.
For “AUAAACUGAGGAUAUACAUGAGGAUCACCCAUGUAAAAAAAAAAAUGAUCCUCAAAAAGUAGAAGGCAGAAUAA [JR_Exc003_Sub016]”, the entries for the “apparent KD of MS2 coat protein” value in the data set on MS2 coat protein [1] and in the data set with MS2 coat protein [2] were 23.4 nM and 35.8 nM, respectively.
In the case of “AUAGUACAUGAGGAUCACCCAUGUCAGGAUAUGCGAAACGAAAAAAAAAAAAAGUGAAGUAGAAGGGACUAUAA [EX1 Malc#9]”, the “apparent KD of MS2 coat protein” value in the data set with MS2 coat protein [1] stood at 29.8 nM; in the data set on MS2 coat protein [2], 30.4 nM.
For the sequence “AUCAUGUAAGGAUAUUUAAGAAAAGAAAAGAAAGAAAAGAAAAAGAAGGUACAUGAGGAUCACCCAUGUAAGAA [EteRNA is fun!]”, the “apparent KD of MS2 coat protein” value is 27.1 nM with MS2 coat protein [1] and 18.9 nM in the data set on MS2 coat protein [2].
In the case of “AUCGAUCGAGGAUAUACAUGAGGAUCACCCAUGUAAAAAAAAAAAAAGUCCUCAGGACGUAGAAGGCGACGCAA [JR_Exc003_Sub401]”, the results for the “apparent KD of MS2 coat protein” value with MS2 coat protein [1] and in the data set on MS2 coat protein [2] were 16.6 nM and 22.3 nM, respectively.
Regarding “AUCUUGUCAGGAUAUGACUACAUAAAAAAUAAAAAAUGUAGUCAGAAGGGACAUGAGGAUCACCCAUGUACCAA [Mat - Exclusion 4 - Eli mod - D96]”, the results for the “apparent KD of MS2 coat protein” value with MS2 coat protein [1] and with MS2 coat protein [2] were 20.4 nM and 22.3 nM, respectively.
